{"source": "paper PMC7028823", "about": "“EF1025, a Hypothetical Protein From Enterococcus faecalis, Interacts With DivIVA and Affects Cell Length and Cell Shape” (Frontiers in Microbiology, 2020)", "molecules": {"B1": {"name": "6×His-EF1025 (natural protein, Enterococcus faecalis JH2-2, UniProt Q836T2 1-209, looked up)", "chain": "MKLSKRQEQIIAVVKEHQPVSGERISDILAVSRATLRSDLSFLTLSGILKASPKVGYTYESDNMEAFFFFDVFQTKVQEIMSPPLMVAQDTSIRDAITNLFMYDVGSLYVMDEAKELLGVLSRKDLLRASLNTNIDGTPVAVCMTRVPHVKTCTPEFTILEAADTLQKYEVDSLPVVEKENPKKVIGKITKTKILTYITQQAKEAAQNR", "notes": "hypothetical protein EF1025 of Enterococcus faecalis (209 AA), gene amplified with primers EF1025F-F/R and cloned into pET30a(+); Vector pET30a(+); also called pETEF1025; source: E. coli C41 (DE3), in lysate supernatant (pull-down); copies: 10"}}, "key": {"[1]": {"biological_target": "DivIVAEf (bacterial two-hybrid fusion) (Enterococcus faecalis JH2-2) (UniProt Q93C53)", "test": "two-hybrid; bacterial two-hybrid (Di Lallo) in E. coli R721, vectors pcI434-L and pcIp22-L, 0.1 mM IPTG; residual β-galactosidase activity, less than 50% indicates a positive interaction"}, "[2]": {"biological_target": "the molecule itself", "test": "SEC-MALS; 1 mg purified 6×His-EF1025 on Superdex 200 in 50 mM Tris base, 400 mM NaCl, pH 7.4; also with 1 mM dithiothreitol"}}, "data": [{"molecule": "EF1025-c (AA80-209 of EF1025), bacterial two-hybrid fusion (domain or fragment)", "values": [{"measurement": "residual β-galactosidase activity", "setting": "[1]", "value": 14, "unit": "%"}]}, {"molecule": "B1", "values": [{"measurement": "stoichiometry N", "setting": "[2]", "value": 10}]}]}
